3 molecules from paper doi:10.1101/2025.03.30.646023 (bioRxiv, 2025) can be followed below.

One experiment deals with LC556375.1 RBD (Sarbecovirus Rc-o319 (Rhinolophus …, strain)). Put plainly: flow cytometry on cells.
Experiment [1] deals with T1, SARS-CoV-2 spike S2 stem helix peptide (amino acid 1143 - 1162) (SARS-CoV-2, UniProt P0DTC2, biotin, amino-terminus).
T1 chain: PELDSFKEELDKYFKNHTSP
The experiment can be described thus: SPR.

The target of experiment [2] is T2, SARS-CoV-2 spike S2 [aa 1149-1167] peptide (SARS-CoV-2, UniProt P0DTC2).
T2 chain: KEELDKYFKNHTSPDVDLG
Put plainly: crystal structure.

B1: PRO-37587 (antibody, V domains shown)
VH: QVQLVQSGAEVKKPGSSVKVSCKASGDTSDTYTISWVRQAPGQGLEWMGRIILLSGYANYAQKIQGRVTITADKSTSTAYMELTSLRSDDTAVYYCARGFNGDYYGWGDDDAFDFWGQGTLVTVYS
VL: QTVLTQPPSVSGAPGQRVTISCTGSSSNIGAGYRVHWYQQLPGTAPKLLIAGRSNRPSGVPDRFSGSKSGTSASLAITGLQAEDEADYYCQSYDSSLFDPHWVFGGGTKLTVL
With B1, the binding result with LC556375.1 RBD is listed as “no binding (tested: 1 nM)”.

B2: GB-0669 Fab (Fab, V domains shown)
VH: EVQLVESGAEVKKPGESLKISCKGSGYTFTRYWIGWVRQMPGKGLEWMGIIYPGDSDVRYSPSFQGHVTISADKSISTAYLQWNSLKASDTAMYYCARLPQYCSKGVCYRWFDPWGQGTLVTVSS
VL: EIVLTQSPSSVSASVGDRVTITCRASQGISSWLAWYQQKPGKAPKLLIYAASSLQSGVPSRFSGSGSGTDFTLTISSLQPEDFATYYCQQGHSFPYTFGQGTNLEIK
For the molecule B2, the binding result in experiment [1] and in experiment [2] was “binds” in each case.

B3: CV3-25 Fab (Fab, V domains shown)
VH: EVQLVESGAEVKKPGESLKISCKGSGYTFTRYWIGWVRQMPGKGLEWMGIIYPGDSDTRYSPSFQGHVTISADKSISTAYLQWNSLKASDTAMYYCARLPQYCSNGVCQRWFDPWGQGTLVTVSS
VL: EIVLTQSPSSVSASVGDRVTITCRASQGISSWLAWYQQKPGKAPKLLIYAASSLQSGVPSRFSGSGSGTDFTLTISSLQPEDFATYYCQQGNSFPYTFGQGTNLEIK
Take B3: the binding result in experiment [1] is “binds”.
